Results on 3 molecules are retold here after paper PMC5025710, “The N-terminal domain plays a crucial role in the structure of a full-length human mitochondrial Lon protease” (Scientific Reports, 2016).

Series [1] addresses proteolytically inactive human mitochondrial Lon protease mutant hLon S855A (human) (UniProt P36776). Put plainly: cryo-EM structure; hLon S855A incubated with 1 mM ADP, 1 mg/ml diluted 5× in buffer B (20 mM HEPES pH 8.0, 150 mM NaCl, 5 mM MgCl2); map at 21 Å.
For series [2] the target is unchanged. Put plainly: cryo-EM structure; hLon S855A incubated with 1 mM AMP-PNP, 1 mg/ml diluted 5× in buffer B (20 mM HEPES pH 8.0, 150 mM NaCl, 5 mM MgCl2); map at 15 Å.
Series [3] deals with the molecule itself. Put plainly: cryo-EM 2D class averages; hLonΔ270, 1 mg/ml diluted 5× in buffer B; 2D class averages (Relion) compared with projections of five and six fitted 3M6A subunits; no 3D map.
The target of series [4] is T1, hLonΔ270 mutant (Δ1–270), human Lon lacking its first 270 amino acids (human) (UniProt P36776).
T1 sequence: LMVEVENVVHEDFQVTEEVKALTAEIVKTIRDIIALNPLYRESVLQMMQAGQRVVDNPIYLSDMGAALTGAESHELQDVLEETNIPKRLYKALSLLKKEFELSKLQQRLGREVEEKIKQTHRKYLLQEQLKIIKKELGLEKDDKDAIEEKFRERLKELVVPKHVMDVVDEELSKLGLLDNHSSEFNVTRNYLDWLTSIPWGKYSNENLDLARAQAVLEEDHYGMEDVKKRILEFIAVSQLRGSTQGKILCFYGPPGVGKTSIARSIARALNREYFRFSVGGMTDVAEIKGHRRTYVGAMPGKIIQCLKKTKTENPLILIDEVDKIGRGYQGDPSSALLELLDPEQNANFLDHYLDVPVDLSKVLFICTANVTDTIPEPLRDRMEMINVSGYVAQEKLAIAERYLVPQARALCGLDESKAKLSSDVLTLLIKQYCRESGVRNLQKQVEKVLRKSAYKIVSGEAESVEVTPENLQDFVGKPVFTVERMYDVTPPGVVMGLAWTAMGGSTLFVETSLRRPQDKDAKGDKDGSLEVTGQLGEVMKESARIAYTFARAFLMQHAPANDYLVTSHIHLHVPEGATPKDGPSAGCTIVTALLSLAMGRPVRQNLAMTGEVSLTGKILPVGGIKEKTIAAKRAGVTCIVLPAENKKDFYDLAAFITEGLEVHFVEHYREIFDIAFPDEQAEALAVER

As to “proteolytically inactive human mitochondrial Lon protease mutant hLon S855A (from UniProt P36776 68-959) (enzyme)”, the stoichiometry N in series [1] and in series [2] was 6 each time.

B1: hLonΔ270 mutant (Δ1–270), human Lon lacking its first 270 amino acids (domain or fragment, UniProt P36776 271-959, looked up)
chain: T1 sequence
notes: primers Lon_271_FW and Lon_960_RV (to the stop codon); A few vector residues probably remain after PreScission cleavage (surmised from the primer); also called shortened hLon; source: in-fusion cloning into pOPINJ; not shown: 6×His-GST, N-terminal, cleaved
On to B1, for which the stoichiometry N – broadly, the number of molecules, sites or subunits per partner or assembly – in series [3] turned out to be 6.

B2: β-casein (natural protein)
chain: RELEELNVPGEIVESLSSSEESITRINKKIEKFQSEEQQQTEDELQDKIHPFAQTQSLVYPFPGPIPNSLPQNIPPLTQTPVVVPPFLQPEVMGVSKVKEAMAPKHKEMPFPKYPVEPFTESQSLTLTDVENLHLPLPLLQSWMHQPHQPLPPTVMFPPQSVLSLSQSKVLPVPQKAVPYPQRDMPIQAFLLYQEPVLGPVRGPFPIIV
As to B2, in series [4], the stimulation of the ATPase activity of hLonΔ270 by β-casein (25 μg β-casein, 5 μg hLon, 37 °C) stood at 2 fold and the stimulation of the peptidase activity of hLonΔ270 (glutaryl-Ala-Ala-Phe-MNA) by β-casein (25 μg β-casein, 5 μg hLon, 37 °C) is 2 fold.
